One assay concerns PnanTp. The assay can be described thus: E. coli dual plasmid system (luciferase reporter fused to PnanTp). It counts as cell-based. To be noted: for luciferase activity (PnanTp) after addition of Neu5Ac: BSE1201 host, arabinose, presence or absence of Neu5Ac; for repressive effect of NanR on activity of PnanTp: point mutations in DBD. The method, then: E. coli strains were co-transformed with a luciferase reporter plasmid (pBS0915) and one of the pNB-series of plasmids that express NanR. Cells were cultured overnight and then diluted into the appropriate fresh media (supplemented M9 in FIG. 3; LB in FIG. 4) containing arabinose (0.002%), and incubated at 37° C. until cells grew to early exponential phase. Relative luminescence unit (RLU) was calculated by dividing the luminescence by the A600, as described previously. For screening ligand-sensing residues, the BSE1201 strain (ΔaraBAD ΔnanE) was used as the host cell instead of DH5α to ensure that the arabinose was not used as a carbon source and that ManNAc-6P generated from Neu5Ac was accumulated in the cell.
To assess the importance of the interaction between ManNAc-6P and NanR to regulation of the nan genes, the residues involved in ligand-binding were mutated and the impact on NanR function was investigated using an E. coli dual plasmid system. Cells were cotransformed with plasmids containing a luciferase reporter gene fused to the NanR-binding nanT(PSL)AR promoter (PnanTp), and wild-type or mutant NanR, and then incubated in the presence of arabinose and the presence or absence of Neu5Ac.
The simplest helix-turn-helix (HTH)-containing DBD includes three core helices; the HTH domains can form tetra-helical bundle, winged helix, and ribbon-helix-helix type configurations. The DBD of NanR is composed of a six-helix bundle, which is not the archetypal conformation of HTH-containing domains; therefore, the recognition helix required for DNA-binding could not been determined. […] The importance of these residues to DNA-binding was examined using an E. coli dual plasmid system described in Example 2. The repressive effect of wild-type NanR on activity of PnanTp was abolished by the R57A, R57L, R60A, and R60L point mutations (FIG. 4c).
A general note: In a reporter assay the amount or activity of a reporter protein is the signal.

The test system of assay [1] is nanTp-nanE intergenic region. Description: EMSA of NanR with nanTp-nanE intergenic region. It is filed as binding, Vibrio vulnificus. To be noted: wild-type or mutant NanR. The method, then:
Purified His-NanR protein was used to raise a primary polyclonal antibody by immunizing European rabbits (Oryctolagus curiculus). First, after one primary injection containing 500 μg of protein, three boosters containing 200 μg of protein was performed at 2-week intervals. Western blotting, EMSA and DNaseI footprinting assays were performed according to typical procedures known in the art.
NanR represses both nan T(PSL)AR and nanEK nagA operons by binding to an operator within the nanTp-nanE intergenic region. To examine the role of R57 and R60 residues in DNA binding, EMSA (electrophoretic gel mobility shift assays), in which the nanTp-nanE intergenic region was incubated with wild-type or mutant NanR in the absence or presence of ManNAc-6P, were performed.
The importance of K188 and K199 residues on all to binding of NanR to DNA was assessed by EMSA. […] Furthermore, the mutants were much more susceptible to ManNAc-6P than wild-type NanR (FIG. 10). […] The transcriptional control region of nan operon interacts with the dimer via the positively charged residues in this space (FIGS. 7b and 7c).
Background: Mobility shift assays separate free from complexed probe on a gel.

B1: S138A: modified NanR protein, Ser138 substituted with alanine (protein)
chain: MGSPKNLLVRLRSNMEPFSKKLRVVADYILENAHDVQFQTITDLARNTQTSEATVVRLCRDMGYKGYSDFRMALAVDLSQTESRQQNHIEGDICDVSAQSAVDSLQDTAKLIDRKSLARIVERVHQAEFIGCIGVGAASIVGRYLAYRLIRIGKKAIMFEDTHLAAMSASRSSQGDLWFAVSSSGSTKEVIHAAGLAYKRDIPVVSLTNINHSPLSSLSTEMLVAARPEGPLTGGAFASKVGALLLVDVLVNSLLESYPEYKDSVQETAEVVIPLMAN
On to B1, for which the “luciferase activity (PnanTp) after addition of Neu5Ac” value (“luciferase activity (PnanTp)” for short) with PnanTp was “unable to activate PnanTp”.

B2: K240A: modified NanR protein, Lys240 substituted with alanine (protein)
chain: MGSPKNLLVRLRSNMEPFSKKLRVVADYILENAHDVQFQTITDLARNTQTSEATVVRLCRDMGYKGYSDFRMALAVDLSQTESRQQNHIEGDICDVSAQSAVDSLQDTAKLIDRKSLARIVERVHQAEFIGCIGVGASSIVGRYLAYRLIRIGKKAIMFEDTHLAAMSASRSSQGDLWFAVSSSGSTKEVIHAAGLAYKRDIPVVSLTNINHSPLSSLSTEMLVAARPEGPLTGGAFASAVGALLLVDVLVNSLLESYPEYKDSVQETAEVVIPLMAN
Turning to B2, the “luciferase activity (PnanTp)” value with PnanTp is given as “unable to activate PnanTp”.

B3: S182A: modified NanR protein, Ser182 substituted with alanine (protein)
chain: MGSPKNLLVRLRSNMEPFSKKLRVVADYILENAHDVQFQTITDLARNTQTSEATVVRLCRDMGYKGYSDFRMALAVDLSQTESRQQNHIEGDICDVSAQSAVDSLQDTAKLIDRKSLARIVERVHQAEFIGCIGVGASSIVGRYLAYRLIRIGKKAIMFEDTHLAAMSASRSSQGDLWFAVASSGSTKEVIHAAGLAYKRDIPVVSLTNINHSPLSSLSTEMLVAARPEGPLTGGAFASKVGALLLVDVLVNSLLESYPEYKDSVQETAEVVIPLMAN
Turning to B3, the “luciferase activity (PnanTp)” value in the assay with PnanTp is on record as “unable to activate PnanTp”.

B4: K240M: modified NanR protein, Lys240 substituted with methionine (protein)
chain: MGSPKNLLVRLRSNMEPFSKKLRVVADYILENAHDVQFQTITDLARNTQTSEATVVRLCRDMGYKGYSDFRMALAVDLSQTESRQQNHIEGDICDVSAQSAVDSLQDTAKLIDRKSLARIVERVHQAEFIGCIGVGASSIVGRYLAYRLIRIGKKAIMFEDTHLAAMSASRSSQGDLWFAVSSSGSTKEVIHAAGLAYKRDIPVVSLTNINHSPLSSLSTEMLVAARPEGPLTGGAFASMVGALLLVDVLVNSLLESYPEYKDSVQETAEVVIPLMAN
For B4, the “luciferase activity (PnanTp)” value with PnanTp is “unable to activate PnanTp”.

B5: E229L: modified NanR protein, Glu229 substituted with leucine (protein)
chain: MGSPKNLLVRLRSNMEPFSKKLRVVADYILENAHDVQFQTITDLARNTQTSEATVVRLCRDMGYKGYSDFRMALAVDLSQTESRQQNHIEGDICDVSAQSAVDSLQDTAKLIDRKSLARIVERVHQAEFIGCIGVGASSIVGRYLAYRLIRIGKKAIMFEDTHLAAMSASRSSQGDLWFAVSSSGSTKEVIHAAGLAYKRDIPVVSLTNINHSPLSSLSTEMLVAARPLGPLTGGAFASKVGALLLVDVLVNSLLESYPEYKDSVQETAEVVIPLMAN
Regarding B5, the “luciferase activity (PnanTp)” value with PnanTp is given as “unable to activate PnanTp”.

B6: H163L: modified NanR protein, His163 substituted with leucine (protein)
chain: MGSPKNLLVRLRSNMEPFSKKLRVVADYILENAHDVQFQTITDLARNTQTSEATVVRLCRDMGYKGYSDFRMALAVDLSQTESRQQNHIEGDICDVSAQSAVDSLQDTAKLIDRKSLARIVERVHQAEFIGCIGVGASSIVGRYLAYRLIRIGKKAIMFEDTLLAAMSASRSSQGDLWFAVSSSGSTKEVIHAAGLAYKRDIPVVSLTNINHSPLSSLSTEMLVAARPEGPLTGGAFASKVGALLLVDVLVNSLLESYPEYKDSVQETAEVVIPLMAN
As to B6, the “luciferase activity (PnanTp)” value with PnanTp was “unable to activate PnanTp”.

B7: K188A (protein)
chain: MGSPKNLLVRLRSNMEPFSKKLRVVADYILENAHDVQFQTITDLARNTQTSEATVVRLCRDMGYKGYSDFRMALAVDLSQTESRQQNHIEGDICDVSAQSAVDSLQDTAKLIDRKSLARIVERVHQAEFIGCIGVGASSIVGRYLAYRLIRIGKKAIMFEDTHLAAMSASRSSQGDLWFAVSSSGSTAEVIHAAGLAYKRDIPVVSLTNINHSPLSSLSTEMLVAARPEGPLTGGAFASKVGALLLVDVLVNSLLESYPEYKDSVQETAEVVIPLMAN
Turning to B7, the “DNA binding in EMSA” value in assay [1] was “not as conspicuous as that of wild-type NanR”.

B8: R57L: modified NanR protein, Arg57 substituted with leucine (protein)
chain: MGSPKNLLVRLRSNMEPFSKKLRVVADYILENAHDVQFQTITDLARNTQTSEATVVLLCRDMGYKGYSDFRMALAVDLSQTESRQQNHIEGDICDVSAQSAVDSLQDTAKLIDRKSLARIVERVHQAEFIGCIGVGASSIVGRYLAYRLIRIGKKAIMFEDTHLAAMSASRSSQGDLWFAVSSSGSTKEVIHAAGLAYKRDIPVVSLTNINHSPLSSLSTEMLVAARPEGPLTGGAFASKVGALLLVDVLVNSLLESYPEYKDSVQETAEVVIPLMAN
On to B8, for which the “repressive effect of NanR on activity of PnanTp” value with PnanTp was “abolished”.

B9: S184A: modified NanR protein, Ser184 substituted with alanine (protein)
chain: MGSPKNLLVRLRSNMEPFSKKLRVVADYILENAHDVQFQTITDLARNTQTSEATVVRLCRDMGYKGYSDFRMALAVDLSQTESRQQNHIEGDICDVSAQSAVDSLQDTAKLIDRKSLARIVERVHQAEFIGCIGVGASSIVGRYLAYRLIRIGKKAIMFEDTHLAAMSASRSSQGDLWFAVSSAGSTKEVIHAAGLAYKRDIPVVSLTNINHSPLSSLSTEMLVAARPEGPLTGGAFASKVGALLLVDVLVNSLLESYPEYKDSVQETAEVVIPLMAN
As for B9, the “luciferase activity (PnanTp)” value in the assay with PnanTp is recorded as “as active as wild-type NanR”.

B10: K188L (protein)
chain: MGSPKNLLVRLRSNMEPFSKKLRVVADYILENAHDVQFQTITDLARNTQTSEATVVRLCRDMGYKGYSDFRMALAVDLSQTESRQQNHIEGDICDVSAQSAVDSLQDTAKLIDRKSLARIVERVHQAEFIGCIGVGASSIVGRYLAYRLIRIGKKAIMFEDTHLAAMSASRSSQGDLWFAVSSSGSTLEVIHAAGLAYKRDIPVVSLTNINHSPLSSLSTEMLVAARPEGPLTGGAFASKVGALLLVDVLVNSLLESYPEYKDSVQETAEVVIPLMAN
With B10, in assay [1], the “DNA binding in EMSA” value is recorded as “not as conspicuous as that of wild-type NanR”.

B11: R60L: modified NanR protein, Arg60 substituted with leucine (protein)
chain: MGSPKNLLVRLRSNMEPFSKKLRVVADYILENAHDVQFQTITDLARNTQTSEATVVRLCLDMGYKGYSDFRMALAVDLSQTESRQQNHIEGDICDVSAQSAVDSLQDTAKLIDRKSLARIVERVHQAEFIGCIGVGASSIVGRYLAYRLIRIGKKAIMFEDTHLAAMSASRSSQGDLWFAVSSSGSTKEVIHAAGLAYKRDIPVVSLTNINHSPLSSLSTEMLVAARPEGPLTGGAFASKVGALLLVDVLVNSLLESYPEYKDSVQETAEVVIPLMAN
In the case of B11, in the assay with PnanTp, the “repressive effect of NanR on activity of PnanTp” value was “abolished”.

B12: H163A: modified NanR protein, His163 substituted with alanine (protein)
chain: MGSPKNLLVRLRSNMEPFSKKLRVVADYILENAHDVQFQTITDLARNTQTSEATVVRLCRDMGYKGYSDFRMALAVDLSQTESRQQNHIEGDICDVSAQSAVDSLQDTAKLIDRKSLARIVERVHQAEFIGCIGVGASSIVGRYLAYRLIRIGKKAIMFEDTALAAMSASRSSQGDLWFAVSSSGSTKEVIHAAGLAYKRDIPVVSLTNINHSPLSSLSTEMLVAARPEGPLTGGAFASKVGALLLVDVLVNSLLESYPEYKDSVQETAEVVIPLMAN
B12: in the assay on PnanTp, the “luciferase activity (PnanTp)” value is “unable to activate PnanTp”.

For the origin of these results see US9482669B2, “Crystal structure of the NanR and ManNAc-6P complex, and uses thereof” (priority 2013, dated 2016).
